By Kd is commonly meant the concentration at which binding is half-saturated. A higher Kd goes with lower affinity.

Where a chain is given by its changes, count along the chain named. No end group written: not given here. *: point of attachment. Biotin = O=C1N[C@H]2[C@H](CS[C@H]2CCCCC(=O)*)N1

The chains are these.
B1: anti-apelin mAb C11 (antibody, V domains shown)
VH: QSLEESGGRLVSPGGSLTLTCTVSGIDLSSHAMDWVRQAPGKGLEWIGVIAPNDATYYPTWARGRFTISKTSTTVGLKMTRLTTEDTATYFCAAYPIDAGANVWGPGTLVTVSS
VL: DPMLTQTASPVSAHVGGTVTINCQSSESVDYNNQLSWYQQKPGQPPKRLMYYVSTLDSGVPSRFKGSGSGTQFSLTISDLECDDAGTYYCQGGYISNLYPFGGGTEVVVK
notes: recombinant rabbit IgG made in HEK293 cells
B2: anti-apelin mAb C16 (antibody, V domains shown)
VH: QSLEESGGRLVTPGGSLTLTCTVSGIDLNSYAMDWVRQAPGKGLEWIGVIAPNHYTYYPTWARGRFTISKTSTTVDLKMTRLTTEDTATYFCATYPIESGSNIWGPGTLVIVSS
VL: B1 VL with M3V, A8P, P10S, H14A, N22G, D30G, Y31M
notes: as for B1
B3: anti-apelin mAb C20 (antibody, V domains shown)
VH: B2 VH with S30N, M33I, Y57C, R81S, T94A, S99T
VL: B1 VL with A8P, P10S, H14A, N22S, Y31M, T71I, Q72H, D83A
notes: as for B1
B4: anti-apelin mAb C22 (antibody, V domains shown)
VH: B2 VH with S30N, R81S, S99T
VL: DPVLTQTPSSVSAAVGGTVTISCQSSESVDMNNQLSWYHQKSGQPPKRLMYYVSTLDSGVPSRFKGSGSGTQFTLTISGVQCDDAGTYYCQGGYISNLYPFGGGTEVVVK
notes: as for B1
B5: anti-apelin mAb C14 (antibody, V domains shown)
VH: B1 VH with L3P, S12T, T22K, V23I, I26V, S30N, H31Y, F66L, G76D, A99V
VL: B1 VL with H14A
notes: as for B1
B6: anti-apelin mAb C10 (antibody, V domains shown)
VH: QSLEESGGRLVTPGGSLTLTCTVSGIDLNSYAIDWVRQAPGKGLEWIGVIAPSGTTYYPTWAKGRFTISKTSTTVDLKVTGLTTEDTATYFCAAYPIDPGSNIWGPGTLVTVSS
VL: DPVLTQTPSSVSAAVGGTATIGCQSSESVDYGNQLSWYQQKPGQPPKRLAYYVSILDAGVPSRFKGSGSGTQFTLTISDLECDDAATYYCQGGYISNLYPFGGGTEVVVQ
notes: as for B1
B7: anti-apelin mAb C12 (antibody, V domains shown)
VH: QSLEESGGRLVTPGGSLTLTCTVSGIDLSSYAIDWVRQAPGKGLEWIGVIAPSSTTYYPTWAKGRFTISKTSSTTVDLKVIGLTTEDTATYFCAAYPIDPGSNVWGPGTLVTVSS
VL: B6 VL with A19V, A50T
notes: as for B1
B8: anti-apelin mAb C4 (antibody, V domains shown)
VH: LEQSGGGAEGGLVKPGGSLELCCKASGFTLSSSYWICWVRQAPGKGLEWIGCIHYGSSGTAYYASWVNGRFTLSRDIDQSTGCLQLNSLTAADTAMYYCARFLSDMYYYNLWGPGTLVTVSS
VL: QVLTQTPASVSAAVGGTVTINCQASQSIYNNNQLSWYQQKPGQPPKLLIYYASTLASGVSSRFKGSGSGTQFTLTISGVQCDDAATYYCQGQFNCRSADCHAFGGGTEVVVK
notes: as for B1

The first assay addresses T1, apelin-13-biotin (…-biotin) (C-terminal biotin).
T1 construct: also called APL13-Biotin
The assay can be described thus: SPR (Biacore), apelin-13-biotin on streptavidin chip. The protocol:
(§1) Anti-apelin mAbs at four different concentrations (12.5 nM, 25 nM, 50 nM and 100 nM) were captured on the chip surface. The on- and off-rate for antibody-antigen binding were measured, curve fitted and calculated.
B1 yielded a Kd of 39.3 pM.
On the same count and under the same terms, the figure for B2 is 14300 pM; for B3 it is 202 pM; for B4 it is 107 pM.
Still for that read-out and setting: the figure for B5 is 141 pM; for B6 it is 6.46 pM; for B7 it is 3.55 pM.

A further assay concerns the target T2, biotin-apelin-13 (biotin-…) (N-terminal biotin).
T2 construct: also called Biotin-APL13
Put plainly: SPR (Biacore), biotin-apelin-13 on streptavidin CM5 chip, mAb at 12.5-100 nM. As to the method:
as §1
With B8, the affinity, expressed as Kd, was 4010 pM.

A further assay has as its target T3, pyr-apelin-13-biotin (pE-RPRLSHKGPMPF-biotin) (N-terminal pyroglutamate (pE); C-terminal biotin).
T3 construct: also called pyrAPL13-Biotin
T3 peptide: ERPRLSHKGPMPF
The assay can be described thus: SPR (Biacore), pyr-apelin-13-biotin on streptavidin chip. The protocol: as §1
A general note: Surface plasmon resonance follows binding to a sensor surface in real time, without labels.
B1 returned a Kd of 0.141 pM.
On the same count and under the same terms, the same measure for B2: 6140 pM; for B3: 41.9 pM; for B4: 0.155 pM.
Same read-out and setting: the figure for B5 is 6.49 pM; for B6 it is 0.0482 pM; for B7 it is 0.0555 pM.

The target of the next assay is T4, Biotin-APL17.
T4 peptide: Biotin-KFRRQRPRLSHKGPMPF
The assay can be described thus: ELISA, peptide on neutravidin plate, mAb 200 ng/ml, A405. The protocol:
(§2) FIGS. 1A-1C show binding of anti-apelin mAbs to various biotinylated apelin peptides measured by ELISA. Biotinylated apelin peptides were immobilized on ELISA plates coated with neutravidin and purified recombinant rabbit anti-apelin mAbs were added for binding to the peptides on the plates. The binding was detected by adding a goat anti-rabbit IgG Fc-conjugated to alkaline phosphatase and PNPP substrate, and measured as the absorbance at 405 nm.
(§3) For the binding assay, neutravidin in carbonate coating buffer was coated on high binding ELISA plates at 1 μg/ml overnight. Peptides were added at 4 μg/ml after the plates were blocked with 1% BSA in TBS. After incubation of the plates at room temperature for 60 minutes, the plates were washed and then purified recombinant rabbit antibodies were added at 200 ng/ml. Following rabbit antibody binding to the peptides on the plates at room temperature for 90 minutes, goat anti-rabbit IgG Fc-conjugated to alkaline phosphatase was added, and antibody-antigen binding was detected by adding PNPP substrate and reading absorbance of ELISA plates at 405 nm. Each mAb was assayed in duplicate.
In general terms: ELISA stands for enzyme-linked immunosorbent assay.
On to B1, for which the binding result is recorded as “binds”.
The same measure, in the same setting: the entry for B2 is “no binding (tested: 200 ng/ml)”.
The same measure, in the same setting: the same measure for B4: “binds”.
Same read-out and setting: the entry for B5 is “binds”; for B8 it is “binds”.
As for B6, the binding result is “no binding (tested: 200 ng/ml)”.
On the same count and under the same terms, the same measure for B7: “no binding (tested: 200 ng/ml)”.

The next assay addresses T5, APL17-Biotin.
T5 peptide: KFRRQRPRLSHKGPMPF-biotin
Described as above. The protocol:
as §2, §3
Consider B1, for which the binding result was “binds”.
As for B2, the binding result is on record as “no binding (tested: 200 ng/ml)”.
Still for that read-out and setting: the entry for B4 is “binds”.
Same read-out and setting: the entry for B5 is “binds”; for B8 it is “binds”; for B6 it is “no binding (tested: 200 ng/ml)”.
On to B7, for which the binding result is on record as “no binding (tested: 200 ng/ml)”.

Source of the values: US20200362021A1 (PHANES THERAPEUTICS, published 2020).
